# According to article PMC3828348:
# Tested on: GST-KSRP
# Assay: competition
# Details: REMSA: 50 mM Tris-HCl pH 7.0, 150 mM NaCl, 0.25 mg/ml tRNA, 0.25 mg/ml BSA, 5% glycerol, 10 min 37°C; competition: 10 mM HEPES pH 7.4, 100 mM KCl, 5 mM MgCl2 …; scale: % HuD binding remaining at equimolar KSRP
substance,measurement,value
GAP-43 ARE RNA (pGAP/B transcript),binding signal,50
